Assay [1] concerns the target anti-GBB5-A1 scFv. The experiment in a line: ELISA. The settings on record: chain shown with the change; biotinylated peptides immobilized in streptavidin-coated microtiter plate wells; soluble scFv protein; parent: est. 100; read off a plot. In general terms: ELISA stands for enzyme-linked immunosorbent assay.
Assay [2] has as its target anti-GBB5-H9 scFv. The experiment in a line: ELISA. As to conditions: chain shown with the change; biotinylated peptides immobilized in streptavidin-coated microtiter plate wells; soluble scFv protein; parent: est. 100; read off a plot.
Assay [3] concerns the target anti-GBB5-H9 scFv-Fc (human). The experiment in a line: SEC; size exclusion chromatography and denaturing SDS-PAGE of the purified scFv-Fc; conditions not given. (SEC sorts molecules by how far they enter the pores of the column.)

From paper PMC4406585 come the findings set out here.

As usually defined, the stoichiometry N is the number of molecules, sites or subunits per partner or assembly.

Sequence of anti-GBB5-A1 scFv (chain, as listed by the source, chain 1 of 2): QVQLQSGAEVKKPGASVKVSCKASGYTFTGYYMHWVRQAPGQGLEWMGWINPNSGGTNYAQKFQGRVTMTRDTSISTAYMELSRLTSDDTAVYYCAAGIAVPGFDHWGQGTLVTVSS
Sequence of anti-GBB5-A1 scFv (chain, as listed by the source, chain 2 of 2): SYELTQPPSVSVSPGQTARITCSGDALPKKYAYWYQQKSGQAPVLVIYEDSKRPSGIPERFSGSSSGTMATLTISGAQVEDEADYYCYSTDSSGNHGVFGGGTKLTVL

B1: GBB5 peptide (Guanine Nucleotide-Binding Protein Beta 5) D4A (peptide)
chain: GSGSKLHAVELHQVAERV
For B1, the values for the percent of parent (% signal of wild type) in assay [1] and in assay [2] were 0.3 and 1.9, respectively.

B2: GBB5 peptide (Guanine Nucleotide-Binding Protein Beta 5) V14A (peptide)
chain: GSGSKLHDVELHQAAERV
On to B2, for which the percent of parent (% signal of wild type) in assay [1] is 51; in assay [2], 55.

B3: GBB5 peptide (Guanine Nucleotide-Binding Protein Beta 5) R13A (peptide)
chain: GSGSKLHDVELHQVAEAV
For B3, the percent of parent (% signal of wild type) was determined as 56 in assay [1] and 1.7 in assay [2].

B4: anti-GBB5-H9 scFv-Fc (Fc fusion)
VH: EVQLVQSGGGLVQPGGSLRLSCAASGFTVSSNYMSWVRQAPGKGLEWVSSISSSSSYIYYADSVKGRFTISRDNAKNSLYLQMNSLRAEDTAVYYCARSYPFDYWGQGTLVTVSS
VL: NFMLTQPHSVSESPGKAVTISCTGSSGDVARNYVQWYQQRPGSAPIIVIYEDTQRPSGVPDRFSGSIDSSSNSASLTISGLTTEDEADYYCQSYDGHNVIFGGGTKLTVL
On to B4, for which the stoichiometry N in assay [3] worked out at 2.

B5: GBB5 peptide (Guanine Nucleotide-Binding Protein Beta 5) K1A (peptide)
chain: GSGSALHDVELHQVAERV
As for B5, the results for the percent of parent (% signal of wild type) in assay [1] and in assay [2] were 0.2 and 74, respectively.
